In patent publication US20170173114A1, “METHODS AND COMPOSITIONS FOR INDUCTION OF UCP1 EXPRESSION” (Joslin Diabetes Center, Inc., priority 2014, published 2017):
Entries after “also recorded” stand apart in the source; their conditions may differ.

Legend:
[1] = tested on: WT-1 brown preadipocytes; assay: Extracellular acidification rate (glycolysis) profile in FGF6 overexpressing WT-1 brown preadipocytes; format: cell-based, murine; conditions: FGF6 overexpressing WT-1 vs control cells
Experimental: To determine whether nutrient supply could regulate mitochondrial activity in FGF6-treated cells, concentrations of glucose in the assay media of cells were manipulated and measured in the Seahorse Bioanalyzer. FGF6 was stably expressed in WT-1 brown preadipocytes and 3T3-F442A white preadipocytes. Stable cells were generated by viral infection followed by drug selection.
A profile of the extracellular acidification rate (ECAR) was developed as described in FIG. 20A. 10 mM glucose was added to the assay media, which was then taken up by the cells and catabolized through glycolysis, producing ATP and protons, and resulting in a rapid increase in ECAR. […] Lastly, the glycolysis inhibitor 2-DG was added to measure […].

[2] = tested on: preadipocytes; assay: Transmission electron microscopy of mitochondria in preadipocytes; format: cell-based; conditions: preadipocytes overexpressing FGF6 vs control
Experimental: To determine if FGF6 treatment affects the overall health condition of mitochondria, mitochondrial attributes such as mitochondria biogenesis, mass, morphology and dynamics were measured. Mitochondrial mass was measured by a cell-permeable dye (MitoTracker Green FM) and by transmission electron microscopy (EM). MitoTracker Green FM accumulates in mitochondria in live cells irrespective of mitochondrial membrane potential. The intensity of fluorescence was visualized by microscopy and quantitated by flow cytometry. Mitochondrial morphology and ultra-structure (such as cristae and granules) was assessed by EM.

[3] = Glucose levels after subcutaneous injection in Chow or high fat diet mice; format: in vivo, C57BL6 mice; conditions: 0.5 mg/kg subcutaneous; vs buffer
Experimental: To determine whether induction of UCP1 and mitochondrial activity by FGF6 could lead to increased nutrient utilization and lower blood glucose or fatty acid in obese mice, diet-induced obese (DIO) mice were treated with recombinant FGF6, and glucose levels were monitored after injection. Specifically, C57BL6 mice (11 weeks) were fed on either a high fat diet (HFD) or a Chow diet (a regular animal diet as a control) and were injected subcutaneously with 0.5 mg/kg recombinant FGF6 (n=5) or buffer (n=5). Glucose levels were measured every 6 hours after injection.

[4] = tested on: WT-1 brown preadipocytes; assay: Mitochondrial DNA copy number and mitochondrial gene expression in brown preadipocytes; format: cell-based, murine; conditions: 24 hours; vs control
Experimental: In order to determine whether the marked changes in mitochondrial respiration observed in preadipocytes treated with FGF6 is due to increased mitochondrial mass and/or changes in mitochondrial dynamics, in addition to increased UCP1 expression, mitochondrial DNA (mtDNA) copy number (as the ratio of CoxII (mtDNA) over β-globin (nuclear DNA)) and expression of genes involved in mitochondrial replication (e.g., mTFA, Nrf1 and Nrf2) in brown preadipocytes was measured.

[5] = tested on: UCP1; assay: UCP1 expression in 3T3-F442A white preadipocytes overexpressing FGF6; format: cell-based; conditions: constitutive overexpression of FGF6 in 3T3-F442A
Experimental: FGF6 lentiviral vector was generated by cloning mouse FGF6 cDNA into a lentiviral vector. Lentiviruses were obtained by transfecting 293T cells with lentiviral vectors. Viral supernatant was filtered through 0.45 um filter before applying to cells. Transduction was accomplished by incubating cells with virus supernatant. Stable cells were established by drug selection. The lentiviral vector contains a drug resistant gene for selection.
To assess FGF6's role in the regulation of mitochondrial activity, FGF6 was stably expressed in WT-1 brown preadipocytes and 3T3-F442A white preadipocytes. Stable cells were generated by viral infection followed by drug selection.
As mentioned above, 3T3-F442A white preadipocytes were also used to determine FGF6's role in mitochondrial activity regulation.

[6] = tested on: WT-1 brown preadipocytes; assay: 2-deoxy-[3H]glucose uptake in WT-1 brown preadipocytes; format: cell-based, murine; conditions: FGF6 overexpressing vs control and EGF
Experimental: The following glucose uptake assay was used to determine whether FGF6 could impact cellular glucose uptake. Specifically, glucose uptake was monitored in WT-1 brown preadipocytes and 3T3-F442A white preadipocytes in the presence or absence of FGF6. After serum starvation in DMEM/H medium containing 1% of BSA for 2-3 h, cells were washed with HEPES buffer and then incubated with or without 100 nM insulin for 30 min in DMEM/H medium containing 1% of BSA. Glucose transport was determined by the addition of 2-deoxy-[3H]glucose (0.1 mM, 0.5 μCi/mL; PerkinElmer Life and Analytical Science, Waltham, Mass.). After 5 minutes of incubation, the reaction was stopped by ice-cold PBS and cells were washed twice with ice-cold PBS. Cells were then lysed in 0.1% SDS, and glucose uptake was assessed in 4 mL of scintillant using Beckman LS6500 scintillation counter (Beckman Coulter, Indianapolis Ind.). Nonspecific 2-deoxy-[3H]glucose uptake was measured in the presence of cytochalasin B (20 μM) and was subtracted from the total uptake to get specific glucose uptake. Results were expressed as the mean±s.e.m. of the indicated number of experiments. The protein content was determined by the Bradford method.
The role of PGs in regulating mitochondrial function and cellular glucose uptake was also assessed. […]

B1: FGF6: fibroblast growth factor 6; recombinant human FGF from R&D Systems, or mouse FGF6 cDNA overexpressed by lentiviral vector (protein)
chain: KRQRRLYCNVGIGFHLQVLPDGRISGTHEENPYSLLEISTVERGVVSLFGVRSALFVAMNSKGRLYATPSFQEECKFRETLLPNNYNAYESDLYQGTYIALSKYGRVKRGSKVSPIMTVTHFLPRI
- cellular glycolysis, glycolytic capacity and glycolytic reserve (ECAR) [1]: increase in cellular glycolysis, glycolytic capacity and glycolytic reserve
- number of mitochondria by transmission electron microscopy [2]: fewer mitochondria
- shape of mitochondria by transmission electron microscopy [2]: longer shape
- glucose level, Chow diet mice [3]: reduction in glucose levels; also recorded: lowers glucose levels
- glucose level, high fat diet (obese) mice [3]: lowers glucose levels
- expression of nuclear-encoded mitochondrial genes [4]: not significantly altered
- mitochondrial DNA copy number (CoxII over β-globin) [4]: no significant difference; also recorded: does not alter
- UCP1 expression [5]: resulted in UCP1 expression; also recorded: marked increases
- glucose uptake level in WT-1 (brown) preadipocytes [6]: increased
